This is an account of results in paper PMC6746150, “Long-Term Local Injection of RAGE-Aptamer Suppresses the Growth of Malignant Melanoma in Nude Mice”.

For the series, the target named is V-domain RAGE (vRAGE) (human, UniProt Q15109 23-121). Nature of the series: QCM (27 MHz); vRAGE immobilized; N = 3; 27-MHz QCM, vRAGE immobilized on sensor; buffer, salt, pH and temperature not stated (as described previously, ref 16).

What is called Kd is the constant that tells how readily two partners part at equilibrium.

Chain of V-domain RAGE (vRAGE) (Q15109 23-121): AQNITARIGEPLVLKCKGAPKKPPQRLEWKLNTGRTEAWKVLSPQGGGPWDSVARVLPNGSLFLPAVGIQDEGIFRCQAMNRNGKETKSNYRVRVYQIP

B1: RAGE-aptamer (XNA)
DNA: CCTGATATGGTGTCACCGCCGCCTTAGTATTGGTGTCTAC
modifications: phosphorothioate nucleotides at capital letters: ccTgATATggTgTcAccgccgccTTAgTATTggTgTcTAc (DNA)
B1: the Kd amounted to 4.44 ± 0.56 nM.
